Test results reported in patent US20240327505A1 (published 2024).

Columns and labels:
Assay in all cases: cell-based or functional assay
[1] = target: SARS-CoV-2 "Alpha" UK B.1.1.7 full-length Spike protein on pseudovirus (SARS-CoV-2, UniProt P0DTC2 14-1273)
[2] = target: SARS-CoV-2 "Beta" SA B.1.351 full-length Spike protein on pseudovirus (SARS-CoV-2, UniProt P0DTC2 14-1273)
[3] = target: SARS-CoV-2 "Gamma" Brazil P.1.B.1.1.28 full-length Spike protein on pseudovirus (SARS-CoV-2, UniProt P0DTC2 14-1273)
[4] = target: SARS-CoV-2 "Delta" B.1.617.2 full-length Spike protein on pseudovirus (SARS-CoV-2, UniProt P0DTC2 14-1273)
[5] = target: SARS-CoV-2 "Delta-plus" B.1.617.2.1 full-length Spike protein on pseudovirus (SARS-CoV-2, UniProt P0DTC2 14-1273)
[6] = target: SARS-CoV-2 "Epsilon" B.1.427/9 full-length Spike protein on pseudovirus (SARS-CoV-2, UniProt P0DTC2 14-1273)

Binder	Pseudovirus Neturalization [1] [µg/mL]	Pseudovirus Neturalization [2] [µg/mL]	Pseudovirus Neturalization [3] [µg/mL]	Pseudovirus Neturalization [4] [µg/mL]	Pseudovirus Neturalization [5] [µg/mL]	Pseudovirus Neturalization [6] [µg/mL]
AB-009769 (antibody, V domains shown) VH: EVQLVESGGGLVQPGGSLRLSCAASGFTFSSYWMSWVRQAPGKGLEWVANIKQDGSEKYYVDSVKGRFTISRDNAKNSLYLQMNSLRAEDTAVYYCARSPEVLWFGDPVLDNWFDPWGQGTLVTVSS VL: SYELTQPPSVSVSPGQTARITCSGDALPKQYAYWYQQKPGQAPVLVIYKDSERPSGIPERFSGSSSGTTVTLTISGVQAEDEADYYCQSADSSGTYPVVFGGGTKLTVL	> 50	> 50	> 50	> 50	> 50	> 50
AB-009661 (antibody, V domains shown) VH: QVQLVESGGGVVQPGRSLRLSCAASGFTFSSYGMHWVRQAPGKGLEWVAVISYDGSNKYYADSVKGRFTISRDNSKNTLYLQMNSLRAEDTAVYYCAKDYGDYGGMDVWGQGTTVTVSS VL: not shown	> 50	> 50	> 50	> 50	> 50	> 50
AB-009281 (antibody, V domains shown) VH: EVQLVETGGGLIQPGGSLRLSCAASGFTVSSNYMSWVRQAPGKGLEWVSVIYSGGSTYYADSVKGRFTISRDNSKNTLYLQMNSLRAEDTAVYYCARDLYYYGMDVWGQGTTVTVSS VL: DIQLTQSPSFLSASVGDRVTITCRASQGISSYLAWYQQKPGKAPKLLIYAASTLQSGVPSRFSGSGSGTEFTLTISSLQPEDFATYYCQQLNSYPTFGQGTKVEIK	> 50	> 50	> 50	0.032	2.29	0.041
AB-009271 (antibody, V domains shown) VH: EVQLVESGGGLIQPGGSLRLSCAASGFIVSSNYMSWVRQAPGKGLEWVSVIYSGGSTYYADSVKGRFTISRDNSKNTLYLQMNSLRAEDTAVYYCARDYGDFYFDYWGQGTLVTVSS VL: EIVMTQSPATLSVSPGERATLSCRASQSVSSNLAWYQQKPGQAPRLLIYGASTRATGIPARFSGSGSGTEFTLTISSLQSEDFAVYYCQQYYNWPRTFGQGTKVEIK	0.275	> 50	> 50	0.012	> 50	0.028
AB-009613 (antibody, V domains shown) VH: EVQLVESGGGLIQPGGSLRLSCAASGFTVSSNYMSWVRQAPGKGLEWVSVIYSGGSTYYADSVKGRFTISRDNSKNTLYLQMNSLRAEDTAVYYCARDYGDFYFDYWGQGTLVTVSS VL: not shown	7.23	> 50	> 50	0.101	> 50	1.16
AB-009760 (antibody, V domains shown) VH: EVQLVQSGAEVKKPGESLKISCKGSGYSFTSYWIGWVRQMPGKGLEWMGIIYPGDSDTRYSPSFQGQVTISADKSISTAYLQWSSLKASDTAMYYCARSRSSDYFDYWGQGTLVTVSS VL: not shown	17.7	> 50	19.2	> 50	46.2	14.1
AB-009734 (antibody, V domains shown) VH: QVHLVQSGAEVKTPGASVRVSCKASGYTFTSHYMHWVRQAPGQGLEWMGLINPSGSGTAYPQHFQGRVTMTRDTSTTTDYMDLSSLRSEDTAMYFCARMERSGAFDLWGQGTMVTVSS VL: EIVLTQSPGTLSLSPGERATLSCRASQTISSRYLAWYYQKPGQAPRLLIQGSSIRATGIPDRFSGSGSGTDFTLTISRLEPEDFAVYYCQHYGSSPPMYTFGQGTKLEIK	> 50	> 50	40.6	> 50	> 50	> 50
AB-009270 (antibody, V domains shown) VH: QMQLVQSGPEVKKPGTSVKVSCKASGFTFTSSAMQWVRQARGQRLEWIGWIVVGSGNTNYAQKFQERVTITRDMSTSTAYMELSSLRSEDTAVYYCAVNYCSSTSCYDAFDIWGQGTMVTVSS VL: not shown	0.117	0.169	0.158	0.03	0.012	0.032
AB-010021 (antibody, V domains shown, also called AB-0010021) VH: QMQLVQSGPEVKKPGTSVKVSCKASGFTFTSSAVQWVRQARGQRLEWIGWIVVGSGNTNYAQKFQERVTITRDMSTSTAYMELSSLRSEDTAVYYCAAVYCSGGSCLDAFDIWGQGTMVTVSS VL: not shown	2.69	8.27	5.39	0.574	0.078	0.629
AB-010020 (antibody, V domains shown) VH: QMQLVQSGPEVKKPGTSVKVSCKASGFTFTSSAVQWVRQARGQRLEWIGWIVVGSGNTNYAQKFQERVTITRDMSTSTAYMELSSLRSEDTAVYYCAAPACSSTSCYDGFDIWGQGTMVTVSS VL: not shown	0.013	0.018	0.0114	0.003	0.001	0.003
AB-009610 (antibody, V domains shown) VH: QVQLVQSGAEVKKPGSSVKVSCKASGGTFSNYAISWVRQAPGQGLEWMGRIIPILGIANYAQKFQGRVTITADKSTSTAYMELSSLRSEDTAVYYCATTPYYYDSSGYYLDYWGQGTLVTVSS VL: not shown	2.84	> 50	> 50	> 50	> 50	> 50
AB-009620 (antibody, V domains shown) VH: QITLKESGPTLVKPTQTLTLTCTFSGFSLSTSGVGVGWIRQPPGKALEWLALIYWDDDKRYSPSLKSRLTITKDTSKNQVVLTMTNMDPVDTATYYCAHHEVATVFDYWGQGTLVTVSS VL: QSALTQPASVSGSPGQSITISCTGTSSDVGAYNYVSWYQQHPGKAPKLMIYEVSNRPSGVSNRFSGSKSGNTASLTISGLQAEDEADYYCSSYTSSSTVFGGGTKLTVL	0.257	0.563	0.327	0.519	0.809	0.974
AB-009614 (antibody, V domains shown) VH: QVQLVESGGGVVQPGRSLRLSCAASGFTFSSYGMHWVRQAPGKGLEWVAVISYDGSNKYYADSVKGRFTISRDNSKNTLYLQMNSLRAEDTAVYYCAKDQKYYDILTGYYRSTYYYYYYGMDVWGQGTTVTVSS VL: not shown	> 50	> 50	> 50	31.3	> 50	> 50
AB-009615 (antibody, V domains shown) VH: QVQLVESGGGVVQPGRSLRLSCAASGFTFSSYGMHWVRQAPGKGLEWVAVIWYDGSNKYYADSVKGRFTISRDNSKNTLYLQMNSLRAEDTAVYYCAKVGSPYCSGGSCYSGYFDYWGQGTLVTVSS VL: not shown	> 50	> 50	> 50	> 50	> 50	38.4
AB-009346 (antibody, V domains shown) VH: EVQLVESGGGVVRPGGSLRLSCAASGFTFDDYGMSWVRQAPGKGLEWVSGINWNGGSTGYADSVKGRFTISRDNAKNSLYLQMNSLRAEDTALYYCARWPLLGISGYYHYYMDVWGKGTTVTVSS VL: QSALTQPRSVSGSPGQSVTISCTGTSSDVGGYNYVSWYQQHPGKAPKLMIYDVSKRPSGVPDRFSGSKSGNTASLTISGLQAEDEADYYCCSYAGSYTLLFGGGTKLIVL	0.114	> 50	> 50	> 50	> 50	33.6
